Measurements: US20200239888
Like-named read-outs stand apart in the source and are kept apart here.

Key:
[1] = biological target: FUS(1-526)[P525L][R/S in 375-422 and 454-526]-NLUC-FLAG P525L; all Arg to Ser in 375-422 and 454-526 (UniProt P35637); details: nanoBRET
[2] = biological target: NanoLuc luciferase control (NLUC-HA) (UniProt Q9GV45); details: full PS, nanoBRET, control protein
[3] = biological target: FUS(375-526)[P525L][R/S in 375-422]-NLUC-HA P525L; all Arg to Ser in 375-422 (UniProt P35637); details: full PS, nanoBRET
[4] = biological target: FUS(375-526)[P525L][R/S in 454-526]-NLUC-HA P525L; all Arg to Ser in 454-526 (UniProt P35637); details: full PS, nanoBRET
[5] = tested on: HA-NES-β23-NLUC (artificial); details: full PS, nanoBRET, control fusion
[6] = biological target: HA-NES-β23-NLUC-FUS(375-526)[P525L][R/S in 375-422 and 454-526] P525L; all Arg to Ser in 375-422 and 454-526 (UniProt P35637); details: full PS, nanoBRET
[7] = 2'-F at 1-5 and 16-20, DNA at 6-15, 5mC at C8, C9, C11
[8] = cEt at 1-5 and 16-20, DNA at 6-15, all C 5mC
[9] = 2'-MOE at 1-5 and 16-20, DNA at 6-15, all C 5mC

Sequence: CUGCUAGCCUCUGGAUUUGA [JB39 (RNA, phosphodiester)]
- Kd [1]: 248 nM

Sequence: CUGCUAGCCTCTGGAUUUGA [766637 (2'-F 5-10-5 gapmer)]
- Kd [2, 7]: > 1000 nM
- Kd [3, 7]: 1.8 nM
- Kd [4, 7]: 38.4 nM
- Kd ([1]; 2'-F at 1-5 and 16-20, DNA at 6-15, full PS, 5mC at C8, C9, C11): 0.3 nM
- Kd [5, 7]: 345 nM
- Kd [6, 7]: 200 nM

Sequence: CTGCTAGCCTCTGGATTTGA [766635 (cEt 5-10-5 gapmer)]
- Kd [2, 8]: > 1000 nM
- Kd [3, 8]: 14.3 nM
- Kd [4, 8]: 290 nM
- Kd ([1]; cEt at 1-5 and 16-20, DNA at 6-15, full PS, all C 5mC): 3.7 nM
- Kd [5, 8]: 950 nM
- Kd [6, 8]: > 1000 nM

Sequence: CTGCTAGCCTCTGGATTTGA [766633 (2'-MOE 5-10-5 gapmer)]
- Kd ([2]; 2'-MOE at 1-5 and 16-20, DNA at 6-15, all C 5mC, 100 mM KOAc, 20 mM Tris pH 8.0, 1 mM EDTA, 0.01% NP-40, RT): > 1000 nM
- Kd [3, 9]: 12.4 nM
- Kd [4, 9]: 282 nM
- Kd ([1]; 2'-MOE at 1-5 and 16-20, DNA at 6-15, full PS, all C 5mC): 1.6 nM
- Kd [5, 9]: > 1000 nM
- Kd [6, 9]: > 1000 nM
